Source: patent US20040185460

T1: inactivated MKK4, P45985
T1 chain: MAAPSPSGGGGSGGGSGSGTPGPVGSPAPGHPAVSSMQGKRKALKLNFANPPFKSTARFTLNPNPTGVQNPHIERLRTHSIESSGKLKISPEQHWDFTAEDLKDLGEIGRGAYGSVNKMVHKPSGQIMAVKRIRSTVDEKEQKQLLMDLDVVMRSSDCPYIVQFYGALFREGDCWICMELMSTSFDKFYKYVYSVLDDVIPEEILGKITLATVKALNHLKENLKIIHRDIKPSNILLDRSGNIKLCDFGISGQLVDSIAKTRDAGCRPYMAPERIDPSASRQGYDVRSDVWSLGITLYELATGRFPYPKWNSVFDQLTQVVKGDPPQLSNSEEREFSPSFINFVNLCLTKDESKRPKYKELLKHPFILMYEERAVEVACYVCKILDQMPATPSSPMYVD


Assays:
[1] = molecular target: GST-MKK7β1(K149A), O14733
[2] = molecular target: GST-MKK4(K113A) [GST: P08515]
[3] = molecular target: myelin basic protein (UBI #13-104)
inactivated MKK4, P45985 = molecular target: T1, inactivated MKK4, P45985

Protein | phosphorylation of substrate coated on the plate (ELISA-based assay, time-resolved fluorescence) [1] | phosphorylation of substrate coated on the plate (ELISA-based assay, time-resolved fluorescence) [2] | phosphorylation of myelin basic protein (radioactive counts, Multiscreen TCA in-plate assay) [3] | phosphorylation of GST-JNK1β1(K55A) by activated MKK4 (phospho-specific JNK antibody, fluorescence) (GST-JNK1β1(K55A), P45983) | in vitro kinase cascade: phosphorylation/activation of MKK4, read as phosphorylated GST-JNK1β1(K55A) (phospho-specific JNK antibody, fluorescence) (inactivated MKK4, P45985) | phosphorylation of substrate coated on the plate (fluorescence units, ELISA-based assay with phospho-threonine antibody, time-resolved fluorescence) [1] | specific activity, ratio against GST-MLK7KD/LZ (ELISA-based phosphorylation assay) [1] | phosphorylation of substrate coated on the plate (fluorescence units, ELISA-based assay with phospho-threonine antibody, time-resolved fluorescence) [2] | specific activity, ratio against GST-MLK7KD/LZ (ELISA-based phosphorylation assay) [2]
baculoviral GST-MLK3KD (protein) LRLEEVIGIGGFGKVYRGSWRGELVAVKAARQDPDEDISVTAESVRQEARLFAMLAHPNIIALKAVCLEEPNLCLVMEYAAGGPLSRALAGRRVPPHVLVNWAVQIARGMHYLHCEALVPVIHRDLKSNNILLLQPIESDDMEHKTLKITDFGLAREWHKTTQMSAAGTYAWMAPEVIKASTFSKGSDVWSFGVLLWELLTGEVPYRGIDCLAVAYGVAVNKLTLPIPSTCPEPFAQLMADCWAQDPHRRPDFASILQQLEAL | both GST-MLK7 forms were less active than GST-MLK3KD (control enzyme) | both GST-MLK7 forms were less active than GST-MLK3KD (control enzyme) | Baculoviral GST-MLK3KD was used as the control enzyme in this analysis to show phosphorylation of myelin basic protein by a member of the mixed lineage kinase family |  |  |  |  |  | 
inactivated MKK4 (protein) MAAPSPSGGGGSGGGSGSGTPGPVGSPAPGHPAVSSMQGKRKALKLNFANPPFKSTARFTLNPNPTGVQNPHIERLRTHSIESSGKLKISPEQHWDFTAEDLKDLGEIGRGAYGSVNKMVHKPSGQIMAVKRIRSTVDEKEQKQLLMDLDVVMRSSDCPYIVQFYGALFREGDCWICMELMSTSFDKFYKYVYSVLDDVIPEEILGKITLATVKALNHLKENLKIIHRDIKPSNILLDRSGNIKLCDFGISGQLVDSIAKTRDAGCRPYMAPERIDPSASRQGYDVRSDVWSLGITLYELATGRFPYPKWNSVFDQLTQVVKGDPPQLSNSEEREFSPSFINFVNLCLTKDESKRPKYKELLKHPFILMYEERAVEVACYVCKILDQMPATPSSPMYVD |  |  |  | MKK4 was activated and was able to phosphorylate its protein substrate GST-JNK1β1(K55A) |  |  |  |  | 
baculoviral human GST-MLK7KD (protein) PANYVAPCRPAASPAPPPSRPSSPVHVAFERLELKELIGAGGFGQVYRATWQGQEVAVKAARQDPEQDAAAAAESVRREARLFAMLRHPNIIELRGVCLQQPHLCLVLEFARGGALNRALAAANAAPDPRAPGPRRARRIPPHVLVNWAVQIARGMLYLHEEAFVPILHRDLKSSNILLLEKIEHDDICNKTLKITDFGLAREWHRTTKMSTAGTYAWMAPEVIKSSLFSKGSDIWSYGVLLWELLTGEVPYRGIDGLAVAYGVAVNKLTLPIPSTCPEPFAKLMKECWQQDPHIRPSFALILEQLTAIEGAVMTEMPQESFHS |  |  | Both GST-MLK7KD and GST-MLK7KD/LZ were able to phosphorylate myelin basic protein |  | both GST-MLK7KD and GST-MLK7KD/LZ were able to phosphorylate MKK4 and as a consequence of this phosphorylation event, MKK4 was activated | both forms of baculoviral GST-MLK7 catalyzed the phosphorylation of the two MKK protein substrates, GST-MKK4(K113A) and GST-MKK7(K149A) | GST-MLK7KD displaying about 2× higher activity than GST-MLK7KD/LZ | both forms of baculoviral GST-MLK7 catalyzed the phosphorylation of the two MKK protein substrates, GST-MKK4(K113A) and GST-MKK7(K149A) | GST-MLK7KD displaying about 2× higher activity than GST-MLK7KD/LZ
